Test results reported in patent US20050106647A1 (University of Texas, published 2005).

Target: PA-BODIPY conjugate (Bacillus anthracis protective antigen conjugated to BODIPY FL) (Bacillus anthracis, UniProt P13423 30-764)
Sequence (P13423 30-764 limits assumed): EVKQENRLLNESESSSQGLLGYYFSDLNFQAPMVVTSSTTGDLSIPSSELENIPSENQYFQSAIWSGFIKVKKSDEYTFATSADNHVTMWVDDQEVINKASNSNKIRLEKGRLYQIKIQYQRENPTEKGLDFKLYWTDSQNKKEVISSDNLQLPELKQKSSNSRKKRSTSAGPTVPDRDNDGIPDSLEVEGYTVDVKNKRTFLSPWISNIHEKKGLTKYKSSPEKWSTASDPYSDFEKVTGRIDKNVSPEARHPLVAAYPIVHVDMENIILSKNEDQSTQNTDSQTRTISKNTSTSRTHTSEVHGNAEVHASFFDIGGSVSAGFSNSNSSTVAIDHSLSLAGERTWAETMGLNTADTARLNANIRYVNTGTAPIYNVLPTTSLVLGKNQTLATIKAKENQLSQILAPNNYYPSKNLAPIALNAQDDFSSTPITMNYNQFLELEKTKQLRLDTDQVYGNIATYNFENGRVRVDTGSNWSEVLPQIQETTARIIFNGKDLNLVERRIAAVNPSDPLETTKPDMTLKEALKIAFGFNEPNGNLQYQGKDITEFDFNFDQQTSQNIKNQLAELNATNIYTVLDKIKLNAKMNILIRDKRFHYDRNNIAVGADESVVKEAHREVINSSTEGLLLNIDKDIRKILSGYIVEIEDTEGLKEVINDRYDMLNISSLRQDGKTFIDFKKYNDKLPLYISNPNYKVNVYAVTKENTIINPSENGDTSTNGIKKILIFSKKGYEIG

B1: NlpA-[14B7 scFv] fusion anchored on the E. coli inner membrane (scFv)
scFv: CDQSSSDIQMTQTTSSLSASLGDRVTISCRASQDIRNYLNWYQQKPDGTVKLLIYYTSRLQSGVPSRFSGSGSGTDYSLTISNQEQEDIGTYFCQQGNTLPWTFGGGTKLEIKRGGGGSGGGGSGGGGSGGGGSEVQLQQSGPELVKPGASVKISCKDSGYAFSSSWMNWVKQRPGQGLEWIGRIYPGDGDTNYNGKFKGKATLTADKSSSTAYMQLSSLTSVDSAVYFCARSGLLRYAMDYWGQGTSVTVSS
With B1 the “fold higher mean fluorescence intensity compared to controls” value was about 9 fold.
